This is an account of results in US20240342190A1, “METHODS FOR REDUCING ISCHEMIA-REPERFUSION INJURIES” (BioMimetix JV, LLC, priority 2023, published 2024).

A short description of this assay: Experiment 8: interaction of BMX-001 with t-PA (blood clot dissolution). Also on record: species or system rat. Particulars: rat blood clots; 1 mg/ml t-PA with or without 50 μg/ml BMX-001; 37° C. for 30 minutes. The protocol: Fresh arterial blood samples were collected from young male rats and distributed into 21 pre-weighed centrifuge tubes. After sitting at 37° C. for 3 hours, the blood clots were formed. The supernatant was removed from these tubes and then the tubes with blood clots were weighed. The weight of the blood clot was calculated (=the tube with blood clot-pre-weighed tube). Then, 1 ml saline, t-PA (1 mg/ml) or t-PA (1 mg/ml) plus BMX-001 (50 μg/ml) were added (n=7 for each group) and tubes placed in 37° C. dry incubator for 3 hours. The liquids were then removed from the tubes. The tubes with remaining blood clots were weighed again. The percentage of blood clot dissolved by t-PA was calculated.

B1: tissue plasminogen activator (protein, UniProt P00750 36-562, looked up)
Tissue-type plasminogen …: SYQVICRDEKTQMIYQQHQSWLRPVLRSNRVEYCWCNSGRAQCHSVPVKSCSEPRCFNGGTCQQALYFSDFVCQCPEGFAGKCCEIDTRATCYEDQGISYRGTWSTAESGAECTNWNSSALAQKPYSGRRPDAIRLGLGNHNYCRNPDRDSKPWCYVFKAGKYSSEFCSTPACSEGNSDCYFGNGSAYRGTHSLTESGASCLPWNSMILIGKVYTAQNPSAQALGLGKHNYCRNPDGDAKPWCHVLKNRRLTWEYCDVPSCSTCGLRQYSQPQFRIKGGLFADIASHPWQAAIFAKHRRSPGERFLCGGILISSCWILSAAHCFQERFPPHHLTVILGRTYRVVPGEEEQKFEVEKYIVHKEFDDDTYDNDIALLQLKSDSSRCAQESSVVRTVCLPPADLQLPDWTECELSGYGKHEALSPFYSERLKEAHVRLYPSSRCTSQHLLNRTVTDNMLCAGDTRSGGPQANLHDACQGDSGGPLVCLNDGRMTLVGIISWGLGCGQKDVPGVYTKVTNYLDWIRDNMRP
notes: standard thrombolytic therapy
B1: the “Percentage of blood clot dissolved” value was 44.77±25.77%.
